Results reported in US8383581B2, “Short-chain peptides as parathyroid hormone (PTH) receptor agonist” (Cadila Healthcare Limited, priority 2009, dated 2013).
*1 amine or outer side, *2 acyl side, *3 side chain or, on linkers, in order; H or OH if unused. Where no end group is shown, it is not given here. [ ]: non-standard residue; d: D form. αMe‑APPA = 2-amino-2-methyl-5-phenylpentanoic acid, C[C@@](CCCc1ccccc1)(N[*:1])C(=O)[*:2]; Bip(2'-Et-4'-OMe) = CCc1cc(OC)ccc1-c1ccc(C[C@H](N)C(=O)O)cc1; αMePhe(2,6-F2) = C[C@](N)(Cc1c(F)cccc1F)C(=O)O; αMeNle = CCCC[C@](C)(N[*:1])C(=O)[*:2]; αMe‑Bip(OMe) = α-methylated Bip(OMe); hhPhe = N[C@@H](CCCc1ccccc1)C(=O)O; hArg = N=C(N)NCCCC[C@H](N)C(=O)O; hCit = NC(=O)NCCCC[C@H](N)C(=O)O; αMeF = C[C@](N)(Cc1ccccc1)C(=O)O; Cit = NC(=O)NCCC[C@H](N)C(=O)O; αMeV = CC(C)[C@](C)(N)C(=O)O; αMeM = CSCC[C@](C)(N)C(=O)O; Nle = CCCC[C@H](N)C(=O)O; Orn = NCCC[C@H](N)C(=O)O; Ac5c = NC1(C(=O)O)CCCC1; Ac3c = NC1(C(=O)O)CC1; Aib = CC(C)(N)C(=O)O

Biological target: T1, rat PTH-1R (rat PTHR endogenously expressed on UMR-106 rat osteosarcoma cells) (rat, UniProt P25961 27-591)
T1 sequence (looked up): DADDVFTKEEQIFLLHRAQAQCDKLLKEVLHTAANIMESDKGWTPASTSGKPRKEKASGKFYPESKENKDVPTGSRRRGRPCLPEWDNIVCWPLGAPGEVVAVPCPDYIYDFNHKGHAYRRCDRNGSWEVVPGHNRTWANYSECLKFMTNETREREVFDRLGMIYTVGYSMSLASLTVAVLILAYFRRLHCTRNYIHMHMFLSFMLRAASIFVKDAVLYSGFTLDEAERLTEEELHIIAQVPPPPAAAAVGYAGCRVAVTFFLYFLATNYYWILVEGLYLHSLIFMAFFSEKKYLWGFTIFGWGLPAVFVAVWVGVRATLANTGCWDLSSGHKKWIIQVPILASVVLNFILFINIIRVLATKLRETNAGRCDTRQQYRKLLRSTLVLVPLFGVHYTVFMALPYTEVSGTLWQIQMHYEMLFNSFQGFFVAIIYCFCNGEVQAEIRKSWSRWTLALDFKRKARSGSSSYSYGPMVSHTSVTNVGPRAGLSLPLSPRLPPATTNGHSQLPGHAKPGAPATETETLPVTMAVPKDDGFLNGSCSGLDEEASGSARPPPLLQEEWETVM
Assay: cell-based or functional assay

Q: With [Aib]V[Aib]EIQ[αMePhe(2,6-F2)][Nle]HQ[hCit]A[Cit][Bip(2'-Et-4'-OMe)][hhPhe] [Seq. ID. 860] as the binder, how does the “cAMP released with respect to control, 1 nM peptide, UMR-106 cells” value (“cAMP released … 1 nM peptide, UMR-106 cells” below) read?
A: The value was 22 percent of control.

Q: And the “cAMP released with respect to control, 10 nM peptide, UMR-106 cells” value (“cAMP released … 10 nM peptide, UMR-106 cells” for short)?
A: Its value is 50 percent of control.

Q: What about the “cAMP released with respect to control, 100 nM peptide, UMR-106 cells” value (shortened to “cAMP released … 100 nM peptide, UMR-106 cells”) of the same binder?
A: Its value is 70 percent of control.

Q: Which results are given for [Aib]V[Aib]EIQL[Nle]HQ[hArg]A[hArg][αMe‑Bip(OMe)][hhPhe] [Seq. ID. 899]?
A: cAMP released with respect to control, 1 nM peptide, UMR-106 cells: 38 percent of control; cAMP released with respect to control, 10 nM peptide, UMR-106 cells: 91 percent of control; cAMP released with respect to control, 100 nM peptide, UMR-106 cells: 120 percent of control

Q: [Aib]V[Aib]EIQ[αMePhe(2,6-F2)][Nle]HQ[hCit][Aib][αMePhe(2,6-F2)][Bip(2'-Et-4'-OMe)][hhPhe] [Seq. ID. 872] was tested. Which “cAMP released … 1 nM peptide, UMR-106 cells” value did it give?
A: The value was 19 percent of control.

Q: And the “cAMP released … 10 nM peptide, UMR-106 cells” value?
A: Its value is 42 percent of control.

Q: And the “cAMP released … 100 nM peptide, UMR-106 cells” value?
A: Its value is 59 percent of control.

Q: Which results are given for V[Aib]V[Aib]EIQL[Nle]HQ[hArg]A[hArg][Bip(2'-Et-4'-OMe)][αMe‑APPA] [Seq. ID. 905]?
A: cAMP released with respect to control, 1 nM peptide, UMR-106 cells: 39 percent of control; cAMP released with respect to control, 10 nM peptide, UMR-106 cells: 104 percent of control; cAMP released with respect to control, 100 nM peptide, UMR-106 cells: 120 percent of control

Q: How did the “cAMP released … 1 nM peptide, UMR-106 cells” value turn out when [Aib]V[Aib]EIQ[αMePhe(2,6-F2)][Nle]HQ[αMePhe(2,6-F2)][Aib][Aib][Bip(2'-Et-4'-OMe)][hhPhe] [Seq. ID. 886] was run?
A: The value was 31 percent of control.

Q: What about the “cAMP released … 10 nM peptide, UMR-106 cells” value of the same binder?
A: Its value is 72 percent of control.

Q: What about the “cAMP released … 100 nM peptide, UMR-106 cells” value of the same binder?
A: Its value is 100 percent of control.

Q: [αMeV][Ac5c]V[Aib]EIQL[αMeM]HQ[hArg]A[hArg][Bip(2'-Et-4'-OMe)][αMe‑APPA] [Seq. ID. 926] was tested. Which “cAMP released … 1 nM peptide, UMR-106 cells” value did it give?
A: The value was 18 percent of control.

Q: And the “cAMP released … 10 nM peptide, UMR-106 cells” value?
A: The value was 51 percent of control.

Q: What about the “cAMP released … 100 nM peptide, UMR-106 cells” value of the same binder?
A: The value was 72 percent of control.

Q: How did the “cAMP released … 1 nM peptide, UMR-106 cells” value turn out when [Aib]V[Aib]EIQ[αMePhe(2,6-F2)][Nle]HQ[hArg][Aib][Cit][Bip(2'-Et-4'-OMe)][hhPhe] [Seq. ID. 820] was run?
A: Its value is 14 percent of control.

Q: What about the “cAMP released … 10 nM peptide, UMR-106 cells” value of the same binder?
A: The value was 48 percent of control.

Q: And the “cAMP released … 100 nM peptide, UMR-106 cells” value?
A: Its value is 66 percent of control.

Q: Which results are given for V[Ac5c]V[Aib]EIQL[αMeNle]HQ[hArg]A[hArg][Bip(2'-Et-4'-OMe)][αMe‑APPA] [Seq. ID. 925]?
A: cAMP released with respect to control, 1 nM peptide, UMR-106 cells: 16 percent of control; cAMP released with respect to control, 10 nM peptide, UMR-106 cells: 41 percent of control; cAMP released with respect to control, 100 nM peptide, UMR-106 cells: 52 percent of control

Q: What does the source list for [Ac5c]V[Aib]EIQ[αMePhe(2,6-F2)][Nle]HQ[Orn][Aib][αMePhe(2,6-F2)][Bip(2'-Et-4'-OMe)][hhPhe] [Seq. ID. 841]?
A: cAMP released with respect to control, 1 nM peptide, UMR-106 cells: 32 percent of control; cAMP released with respect to control, 10 nM peptide, UMR-106 cells: 74 percent of control; cAMP released with respect to control, 100 nM peptide, UMR-106 cells: 100 percent of control

Q: How did the “cAMP released … 1 nM peptide, UMR-106 cells” value turn out when [Ac3c]V[Aib]EIQ[αMePhe(2,6-F2)][Nle]HQ[hArg][Aib]K[αMeF] [Seq. ID. 41] was run?
A: Its value is 26 percent of control.

Q: What about the “cAMP released … 10 nM peptide, UMR-106 cells” value of the same binder?
A: The value was 79 percent of control.

Q: What about the “cAMP released … 100 nM peptide, UMR-106 cells” value of the same binder?
A: The value was 97 percent of control.
